The results in this text go back to article PMC7526551 (JCI Insight, 2020).

T1: NUPR1 (recombinant, purified) (UniProt O60356 1-82)
T1 chain: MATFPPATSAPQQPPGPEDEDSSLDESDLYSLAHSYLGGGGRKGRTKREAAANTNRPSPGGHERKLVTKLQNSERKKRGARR

B1: importin-α3 (residues 1–520), recombinant (domain or fragment, UniProt O00629 1-520, looked up)
chain: MADNEKLDNQRLKNFKNKGRDLETMRRQRNEVVVELRKNKRDEHLLKRRNVPHEDICEDSDIDGDYRVQNTSLEAIVQNASSDNQGIQLSAVQAARKLLSSDRNPPIDDLIKSGILPILVHCLERDDNPSLQFEAAWALTNIASGTSEQTQAVVQSNAVPLFLRLLHSPHQNVCEQAVWALGNIIGDGPQCRDYVISLGVVKPLLSFISPSIPITFLRNVTWVMVNLCRHKDPPPPMETIQEILPALCVLIHHTDVNILVDTVWALSYLTDAGNEQIQMVIDSGIVPHLVPLLSHQEVKVQTAALRAVGNIVTGTDEQTQVVLNCDALSHFPALLTHPKEKINKEAVWFLSNITAGNQQQVQAVIDANLVPMIIHLLDKGDFGTQKEAAWAISNLTISGRKDQVAYLIQQNVIPPFCNLLTVKDAQVVQVVLDGLSNILKMAEDEAETIGNLIEECGGLEKIEQLQNHENEDIYKLAYEIIDQFFSSDDIDEDPSLVPEAIQGGTFGFNSSANVPTEGFQ
notes: importin-α3 (KPNA4), residues 1–520, codon-optimized synthetic vector (Nzytech); called a 58 kDa protein with 6 tryptophans; also called KPNA4; importin-alpha3; source: final Superdex G200 16/60
B2: NUPR1 (recombinant, purified) (natural protein, UniProt O60356 1-82, looked up)
chain: T1 chain
notes: Nuclear Protein 1 (NUPR1), described as an intrinsically disordered protein of 82 amino acids with two tyrosines (Tyr30, Tyr36); also called Nuclear Protein 1; rNUPR1; source: expressed and purified as described (12)

The target of test [1] is B2. Kind of test: ITC; as a3 with ZZW-115 kept constant at 100 μM during the titration; analysed as an apparent quasibinary system and as an exact ternary system; 25°C. Conditions: both partners purified.
Test [2] concerns the target B2. Put plainly: ITC; importin-α3 (100–110 μM) in the syringe, NUPR1 (5–10 μM) in the calorimetric cell, Tris 50 mM pH 8, 25°C; single binding site model (1:1). The settings on record: both partners purified. (In general: In ITC the heat of successive injections is recorded.)
Test [3] concerns the target T1, NUPR1 (recombinant, purified). Kind of test: ITC; 25°C, with ZZW-115.
For test [4], the target named is B1. Put plainly: ITC; as a3 with ZZW-115 kept constant at 100 μM during the titration; analysed as an apparent quasibinary system and as an exact ternary system; 25°C. The settings on record: both partners purified.
Test [5] concerns the target B1. Put plainly: ITC; importin-α3 (100–110 μM) in the syringe, NUPR1 (5–10 μM) in the calorimetric cell, Tris 50 mM pH 8, 25°C; single binding site model (1:1). Conditions: both partners purified.

Take B1: the “fold reduction in affinity with 100 μM ZZW-115 (ternary equilibrium analysis)” value in test [1] was found to be 21 fold. Further, the dH in test [2] is -13.7 kcal/mol. Moreover, in test [3], the Ka was determined as 28000 M⁻¹.

For the molecule B2, the Kd in test [4] worked out at 35 µM. Moreover, in test [5], the Ka was 690000 M⁻¹ and the Kd was 1.4 µM.
